Measurements: patent publication US20050260627A1, “Mannosidases and methods for using same” (University of Victoria Innovation and Development …, priority 1999, published 2005)

Columns and labels:
[1] = test system: A. nidulans α-1,2-mannosidase IC; assay: Effect of EDTA, calcium and deoxymannojirimycin on enzyme activity; assay type: biochemical, Aspergillus nidulans; conditions: for effect of addition on enzyme activity: added to purified α-1,2-mannosidase IC
Description: (§1) FIG. 8: Biochemical characterization of purified A. nidulans α-1,2-mannosidase IB (A) and α-1,2-mannosidase IC (B) enzymes. Enzyme activity was assayed by digestion of the synthetic substrate Man-α1,2-Man-OCH3 at 37 °C for 3 hours. Released mannose was detected using a colorimetric glucose oxidase/horseradish peroxidase assay (see Materials and Methods) and measuring absorbance at […].
(§2) The α-mannosidase IB and IC expression vectors were introduced into the genome of A. nidulans strain T580 (ura-) by cotransformation and complementation with the pJR15 vector, which contained the selectable ura marker. It has been shown that when two plasmids are used simultaneously in the transformation of fungal protoplasts (cotransformation), as many as 60% of transformed protoplasts will integrate both of the plasmids into the genome (Wernars et al. 1987, Mol. Gen. Genet., 209: 71-77). Protoplasts were prepared according to the method of Fincham (1989, Microbiol. Rev., 53: 148-170), using Sigma Lysing Enzyme for cell wall digestion. Protoplasts of strain T580 (uridine auxotroph) were co-transformed with 1 μg of the selectable marker pJR15, which converts transformed cells to uridine prototrophy, and with 1 μg of either ANIBSEC or ANICSEC. Transformants were initially screened for integration of […] by selection on minimal media, and positive transformants were then transferred to individual complete media plates. Transformants were selected for prototrophy on uridine deficient minimal media and transferred to complete media plates. To confirm secretion of active recombinant α-1,2-mannosidase IB or IC into the culture media of putative transformants, specific activity assays were performed. After 60-65 hours of incubation, aliquots of culture media were assayed for α-1,2-mannosidase activity and compared to the non-transformed T580 strain. Total culture filtrate protein was precipitated and resuspended in assay buffer. Mannosidase assays were performed using the disaccharide Man-α-1,2-Man-OCH3 as a substrate in a coupled enzyme assay as described earlier (Scaman et al. 1996, Glycobiol., 6: 265-270), with some modifications. Digestion of the substrate was performed in a 30 μl final volume containing 10 mM sodium acetate/acetic acid buffer (pH 5.0) and 3 μl 100 mM disaccharide Man-α-1,2-Man-OCH3 incubated at 37° C. for 3 hours. Released mannose was detected by addition of 30 μl 1.25M Tris-HCl (pH7.6) and 240 μl of developing solution, containing glucose oxidase (55 U/ml), horseradish peroxidase (1 U/ml) and o-dianisidine dihydrochloride (70 μg/ml) followed by incubation at 37° C. for 3 hours. Absorbance measurements at 450 nm were used to determine final color change. A standard curve of free mannose concentrations was determined for comparison.

[2] = test system: A. nidulans α-1,2-mannosidase IB; assay: as above; assay type: biochemical, Aspergillus nidulans; conditions: for effect of addition on enzyme activity: added to purified α-1,2-mannosidase IB
Description: as §1, §2

[3] = Digestion of Man9GlcNAc2, cleavage products by MALDI-TOF mass spectrometry; assay type: biochemical; conditions: for cleavage of Man9GlcNAc2 (substrate specificity): non-limiting conditions, about 100 ng enzyme, 10 pmol Man9GlcNAc2
Description: FIG. 9: Partial digestion of Man9GlcNAc2 (M9) with A. nidulans α-1,2-mannosidase IB (A) and A. nidulans α-1,2-mannosidase IC (B) by MALDI-TOF mass spectrometry. Peaks represent parent molecules ionized with sodium (M+Na+). Several different digestion products are produced in each reaction, including Man8GlcNAc2 (M8), Man7GlcNAc2 (M7), Man6GlcNAc2 (M6) and Man5GlcNAc2 (M5).
The substrate specificity of the α-1,2-mannosidase IB and IC from A. nidulans was determined by analyzing the cleavage products of Man9GlcNAc2 by MALDI-TOF mass spectrometry. Approximately 100 ng of either α-1,2-mannosidase IB or IC protein was used to digest 10 pmol of Man9GlcNAc2 (Sigma) in a final volume of 10 μl. Digestion products were analyzed by matrix assisted laser desorption ionization time of flight mass spectrometry (MALDI-TOF-MS) using a Voyager biospectrometry workstation (Applied Biosystems, Foster City Calif.). Samples were mixed in a 1:1 ratio with the matrix (10 mg/ml 2,5-dihydroxybenzoic acid; 50% acetonitrile) and 1 μl was loaded onto a sample plate for analysis. […] Accelerating voltage was 20000V and the grid voltage was set at 94%. Data were analyzed using Data Explorer software (Applied Biosystems, Foster City Calif.). […] This supports the classification of both the α-1,2-mannosidase IB and IC in subgroup 2.
The rate at which various intermediates were produced during the digestion of Man9GlcNAc2 to Man5GlcNAc2 was determined by analyzing the cleavage products during limited time-course experiments (FIG. 9). […] This led to the accumulation of Man7GlcNAc2 and Man6GlcNAc2 intermediates during the progress of the digestion, which were eventually converted to Man5GlcNAc2.

[4] = α-1,2-mannosidase specific activity assay of secreted recombinant enzymes (coupled enzyme assay); assay type: biochemical; conditions: purified enzyme; for optimal pH for highest activity: FIG. 8; for specific activity: non-limiting amounts of Man-α-1,2-Man-OCH3, 1 U = 1 nmol mannose per hour
Description: as §1
as §2, with “Digestion of the substrate was performed in a 30 μl final volume containing 10 mM sodium acetate/acetic acid buffer (pH 5.0) and 3 μl 100 mM disaccharide Man-α-1,2-Man-OCH3 incubated at 37° C. for 3 hours.” left out, “comparison. […] Protein concentrations were determined by the Bradford method (Bradford 1976, Anal. Biochem., 72: 248-254) and comparison to a bovine serum albumin (BSA) standard curve. […]” for “comparison.”

[5] = limited time-course experiments, FIG. 9

## O=C(O)CN(CCN(CC(=O)O)CC(=O)O)CC(=O)O [EDTA]
[1]
  effect of addition on enzyme activity: significantly reduced enzyme activity
[2]
  effect of addition on enzyme activity: significantly reduced enzyme activity

## [Ca+2] [calcium]
[1]; added after EDTA, α-1,2-mannosidase IC
  effect of addition on EDTA-reduced enzyme activity: restored
[2]; added after EDTA, α-1,2-mannosidase IB
  effect of addition on EDTA-reduced enzyme activity: restored

## OC[C@H]1NC[C@@H](O)[C@@H](O)[C@@H]1O [deoxymannojirimycin]
[1]
  effect of addition on enzyme activity: significant decrease in activity
[2]
  effect of addition on enzyme activity: significant decrease in activity

B1: α-1,2-mannosidase IB: Class I α-1,2-mannosidase from A. nidulans (mnsIB, SEQ ID NO: 6), expressed from vector ANIBSEC (protein)
chain: MRTLLALAAFAGFAAARVPATAITRPVMRSDSRADAVKEAFSHAWDGTTNTAFPHDELHPISNGTGDSRNHWGASAVDALSTAIMMRNATIVNQILDHIAAVDTSKTNAMVSLFETTIRTLAGMISGTDLLKGPAAGLVDDSRVDVLLEQSQNLAEVLKFAFDTPSGVPTNMINITSGGNDGATTNGLAVTGTLVLEWTRLSDLTGNDETARLSQRAEDTLLHPEPAQTEPFPGLIGSAVNIADGKLANGHISWNGGADSTTETLIKMTVTDPERFGLTRDRWVAAAESSINHLASHPSTRPDVTFLATTNEEHQLGLTSQHLTCFDGGSFLLGGTLLDRQDFVDFGLDLVAGCHETTNSTLTGIGPEQFSWDPNGVPDSQKELFERAGFTINSGQTILRPEVIESFTTAWRVTGDGTTLEWVWNAFTNINKTCRTATGFAGLENVNAANGGGRIDNQESFMFAEVLKTSFLTFAPEDDWQVQKGSGNTFVTNTEAHPFKVTTPQ
modifications: Aspergillus nidulans
[3]; [5]
  rate of digestion of Man9GlcNAc2 to intermediates: rapidly degraded Man9GlcNAc2 to Man7GlcNAc2
[3]
  cleavage of Man9GlcNAc2 (substrate specificity): cleaved Man9GlcNAc2 completely and efficiently to a Man5GlcNAc2 structure
[4]
  optimal pH for highest activity: 5.0
  specific activity: 7.52 U/μg

B2: α-1,2-mannosidase IC: Class I α-1,2-mannosidase from A. nidulans (mnsIC, SEQ ID NO: 18), expressed from vector ANICSEC (protein)
chain: MPRRWSSLISITAIFLVLFFLLHRNTDTPRAANRATNGPANGFARQQSICPSTPPQPPYNRTSTGGFNWGEIPVRYPVSDFIPLSTNSPATLPRIQRSSFPLQSSITKSRQAAVKGAFQRAWTSYTTHAWKADEVRPITAGSRNNFGGWGATLVDNLDTLLIMGLDEEFAAAVDALADIEFSPHSSPSSSQSTINIFETTIRYLGGLLAAYDLTGCRETRLLDKAIQLGEMIYTSFDTENRMPVPRWNLHKAGNGEPQRAAVQGVLAELASSSLEFTRLSQLTGDMRYFDAASRITDLLDSQAGHTRIPGLWPVSVNLQKGDLTRGSTFSFGGMADSAYEYLGKTYRLLGGVGKGPQYERLARNALDAGIRHLLFRPMTPDHADILLPGVAHATSSSVGLEPRTEHLACFVGGMYALAGKLFSNQTYLDTGRKLTDGCIWYYDNSPLGIMPEMFTVPACPSVAECPWDETRGGIYTYVRDGHYFLRPEAMESIFYMWRITGDEKYREAAWRMFTAIEAVTKTEFGNAAVRDVMVEEGNVKREDSMESFWMAETLKYLYLIFGETDLVSLDDWVFNTEAHPLRGAGS
modifications: Aspergillus nidulans
[3]; [5]
  rate of conversion of Man7GlcNAc2 and Man6GlcNAc2 intermediates to Man5GlcNAc2: more rapidly than the α-1,2-mannosidase IB enzyme
  rate of digestion of Man9GlcNAc2 to intermediates: rapidly degraded Man9GlcNAc2 to Man7GlcNAc2
[3]
  cleavage of Man9GlcNAc2 (substrate specificity): cleaved Man9GlcNAc2 completely and efficiently to a Man5GlcNAc2 structure
[4]
  optimal pH for highest activity: 5.0
  specific activity: 4.56 U/µg
